This passage reports Kd, koff and kon results from publication PMC3276087 (Journal of Experimental Botany, 2011).

B1: His-tagged ACA8 N-terminus, wild type (6His-1M-I116) (domain or fragment)
chain: MTSLLKSSPGRRRGGDVESGKSEHADSDSDTFYIPSKNASIERLQQWRKAALVLNASRRFRYTLDLKKEQETREMRQKIRSHAHALLAANRFMDMGRESGVEKTTGPATPAGDFGI
B2: His-tagged ACA8 N-terminus S29D (6His-1M-I116) (domain or fragment)
chain: MTSLLKSSPGRRRGGDVESGKSEHADSDDDTFYIPSKNASIERLQQWRKAALVLNASRRFRYTLDLKKEQETREMRQKIRSHAHALLAANRFMDMGRESGVEKTTGPATPAGDFGI
B3: His-tagged ACA8 N-terminus S57D (6His-1M-I116) (domain or fragment)
chain: MTSLLKSSPGRRRGGDVESGKSEHADSDSDTFYIPSKNASIERLQQWRKAALVLNADRRFRYTLDLKKEQETREMRQKIRSHAHALLAANRFMDMGRESGVEKTTGPATPAGDFGI
B4: His-tagged ACA8 N-terminus S19D (6His-1M-I116) (domain or fragment)
chain: MTSLLKSSPGRRRGGDVEDGKSEHADSDSDTFYIPSKNASIERLQQWRKAALVLNASRRFRYTLDLKKEQETREMRQKIRSHAHALLAANRFMDMGRESGVEKTTGPATPAGDFGI
B5: His-tagged ACA8 N-terminus S22D (6His-1M-I116) (domain or fragment)
chain: MTSLLKSSPGRRRGGDVESGKDEHADSDSDTFYIPSKNASIERLQQWRKAALVLNASRRFRYTLDLKKEQETREMRQKIRSHAHALLAANRFMDMGRESGVEKTTGPATPAGDFGI
B6: His-tagged ACA8 N-terminus S27D (6His-1M-I116) (domain or fragment)
chain: MTSLLKSSPGRRRGGDVESGKSEHADDDSDTFYIPSKNASIERLQQWRKAALVLNASRRFRYTLDLKKEQETREMRQKIRSHAHALLAANRFMDMGRESGVEKTTGPATPAGDFGI
B7: His-tagged ACA8 N-terminus S99D (6His-1M-I116) (domain or fragment)
chain: MTSLLKSSPGRRRGGDVESGKSEHADSDSDTFYIPSKNASIERLQQWRKAALVLNASRRFRYTLDLKKEQETREMRQKIRSHAHALLAANRFMDMGREDGVEKTTGPATPAGDFGI

For orientation: Kd means a measure of binding affinity in units of concentration. For orientation: koff means the first-order rate constant of dissociation. What is called kon is the rate constant with which the complex forms. The low end stands for slow association, the high end for fast association.

This test deals with bovine testes calmodulin (bovine, UniProt P62157 1-149). Description: SPR.
B1 gave a Kd of 19.3 nM, a koff of 0.00244 s⁻¹ and a kon of 127000 M⁻¹ s⁻¹.

Turning to B2, the affinity, expressed as Kd, was 22.3 nM; the off-rate constant (koff) stood at 0.00382 s⁻¹; the on-rate (kon) stood at 171000 M⁻¹ s⁻¹.

In turn, B3 yielded a Kd of 165 nM, a koff of 0.0255 s⁻¹ and a kon of 154000 M⁻¹ s⁻¹.

In turn, B4 yielded a Kd of 14.5 nM, a koff of 0.00325 s⁻¹ and a kon of 224000 M⁻¹ s⁻¹.

In turn, B5 showed a Kd of 23.9 nM, a koff of 0.00139 s⁻¹ and a kon of 58000 M⁻¹ s⁻¹.

B6 yielded a Kd of 26.5 nM, a koff of 0.0052 s⁻¹ and a kon of 196000 M⁻¹ s⁻¹.

Molecule B7 came in with a dissociation constant (Kd) of 11.3 nM, a koff of 0.00137 s⁻¹ and a kon of 121000 M⁻¹ s⁻¹.
